Paper PMC6749138

What was measured:
[1] = target: HA-tagged HIV-1 Nef E63A (HIV-1 (NL4-3)) (UniProt P03406)
[2] = target: HA-tagged HIV-1 Nef F68A (HIV-1 (NL4-3)) (UniProt P03406)
[3] = target: HA-tagged HIV-1 Nef E63A/F68A double mutant (HIV-1 (NL4-3)) (UniProt P03406)

Substance: adaptor protein 1 (AP-1) complex (from UniProt Q9BXS5 1-423)
- ratio of the GFP+ MHC-I- population of HEK293T cells transfected with Nef (flow cytometry; wild type 34.9%) [1]: 25.7%
- ratio of the GFP+ MHC-I- population of HEK293T cells transfected with Nef (flow cytometry; wild type 34.9%) [2]: 23.2%
- ratio of the GFP+ MHC-I- population of HEK293T cells transfected with Nef (flow cytometry; wild type 34.9%) [3]: 19.2%
